In the data set the target is His-CcpA (nonphosphorylated) (Streptococcus pneumoniae D39) (UniProt A0A0H2ZQ65). The data set can be described thus: EMSA. In general terms: In EMSA bound probe runs differently from free probe, usually more slowly.

As to “CTTTCTGTGAACGTGATTTTTTAAAACGTCTACTCATGATTAACACCTATACATTGAACATCTTACGATTATATCACTTTTTTACGGTAATGTCTACACCTTTTTTCACTATCTGCATCTTTAAGTATCTTAGTAGACTTCCCGCGAACCAAAAATATAGTAAAATGAAATAAGAACATGACAAATTGATCAGGACAGTCAAATCGTTTTCTAACAATATTTTAGAAGCAGATGTGTACTATTCTAGTTTCAATATAATATAGTACACAATGTGGTATAATCTTTTT (double strand) [Pcps2A (-250/+35)]”, the binding entry is reported as “binds”.

Values taken from paper PMC10112228.
